No end group written: not given here.
Target: T1, Ric-8AΔC492 (rat Ric-8A residues 1–492) (rat, UniProt Q80ZG1 1-492)
T1 construct: Ric-8A, rat, residues 1-492; The His tag is used to adsorb it to IMAC resin in the NMR experiment; also called ΔC492Ric-8A; source: E. coli BL21 (DE3)-RIPL, purified (nickel NTA-agarose, UNO-Q); not shown: His6, N-terminal, kept
T1 sequence (looked up): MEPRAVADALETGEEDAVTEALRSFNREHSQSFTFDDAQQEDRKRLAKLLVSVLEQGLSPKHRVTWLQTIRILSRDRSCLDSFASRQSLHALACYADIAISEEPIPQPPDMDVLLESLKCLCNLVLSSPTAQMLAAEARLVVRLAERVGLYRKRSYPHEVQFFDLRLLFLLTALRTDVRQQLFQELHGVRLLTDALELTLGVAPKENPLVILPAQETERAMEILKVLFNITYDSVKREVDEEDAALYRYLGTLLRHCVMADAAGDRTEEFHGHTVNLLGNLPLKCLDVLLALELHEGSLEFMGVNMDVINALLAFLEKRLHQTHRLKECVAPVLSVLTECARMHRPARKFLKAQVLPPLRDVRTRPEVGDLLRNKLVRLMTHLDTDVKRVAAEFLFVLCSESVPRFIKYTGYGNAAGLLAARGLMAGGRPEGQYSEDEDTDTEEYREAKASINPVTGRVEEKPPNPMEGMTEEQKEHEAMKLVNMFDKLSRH
Experiment: ITC; 250 µM peptide injected into 25 µM Ric-8A in the cell, 25°C, single binding site model
Conditions: both partners purified

B1: Gαi1C18, amidated peptide of the 18 C-terminal residues of rat Gαi1 (peptide)
peptide: DAVTDVIIKNNLKDCGLF-NH2
notes: Gαi1, rat, the C-terminal 18 residues; source: synthetic peptide (FMOC chemistry, HPLC purified)
In the case of B1, the Kd is reported as 12 µM, the dH is reported as -5.3 kcal/mol and the “stoichiometry N” value is reported as 0.9.

Source: publication PMC3154933, “The Nucleotide Exchange Factor Ric-8A Is a Chaperone for the Conformationally Dynamic Nucleotide-Free State of Gαi1” (PLoS ONE, 2011)
